Measured values published in PMC516168.

Biological target: Mc-VHA-a fused to YFP (M. crystallinum)
Test: FRET or BRET; in vivo FRET (CFP donor, YFP acceptor, fused to C-termini) in co-transformed A. thaliana mesophyll protoplasts; excitation 458 nm; acceptor photobleaching at 514 nm; confocal microscopy

## Mc-VHA-c fused to CFP (natural protein)
  FRET efficiency: 0.45
